Experimental findings from patent US7087420B1, “Microbial β-glucuronidase genes, gene products and uses thereof” (Cambia, priority 1997, dated 2006) are described below.

The labels stand for the following.
B1: C, D, E: E. coli GUS mutein, Cys 197 to Ser, Cys 253 to Glu, Cys 262 to Ser (protein, UniProt P05804 1-603, looked up, variant C197S C253E C262S)
Beta-glucuronidase: MLRPVETPTREIKKLDGLWAFSLDRENCGIDQRWWESALQESRAIAVPGSFNDQFADADIRNYAGNVWYQREVFIPKGWAGQRIVLRFDAVTHYGKVWVNNQEVMEHQGGYTPFEADVTPYVIAGKSVRITVCVNNELNWQTIPPGMVITDENGKKKQSYFHDFFNYAGIHRSVMLYTTPNTWVDDITVVTHVAQDSNHASVDWQVVANGDVSVELRDADQQVVATGQGTSGTLQVVNPHLWQPGEGYLYELEVTAKSQTESDIYPLRVGIRSVAVKGEQFLINHKPFYFTGFGRHEDADLRGKGFDNVLMVHDHALMDWIGANSYRTSHYPYAEEMLDWADEHGIVVIDETAAVGFNLSLGIGFEAGNKPKELYSEEAVNGETQQAHLQAIKELIARDKNHPSVVMWSIANEPDTRPQGAREYFAPLAEATRKLDPTRPITCVNVMFCDAHTDTISDLFDVLCLNRYYGWYVQSGDLETAEKVLEKELLAWQEKLHQPIIITEYGVDTLAGLHSMYTDMWSEEYQCAWLDMYHRVFDRVSAVVGEQVWNFADFATSQGILRVGGNKKGIFTRDRKPKSAAFLLQKRWTGMNFGEKPQQGGKQ
B2: B: E. coli GUS mutein, Cys 133 changed to Ala (protein, UniProt P05804 1-603, looked up, variant C133A)
Beta-glucuronidase: MLRPVETPTREIKKLDGLWAFSLDRENCGIDQRWWESALQESRAIAVPGSFNDQFADADIRNYAGNVWYQREVFIPKGWAGQRIVLRFDAVTHYGKVWVNNQEVMEHQGGYTPFEADVTPYVIAGKSVRITVAVNNELNWQTIPPGMVITDENGKKKQSYFHDFFNYAGIHRSVMLYTTPNTWVDDITVVTHVAQDCNHASVDWQVVANGDVSVELRDADQQVVATGQGTSGTLQVVNPHLWQPGEGYLYELCVTAKSQTECDIYPLRVGIRSVAVKGEQFLINHKPFYFTGFGRHEDADLRGKGFDNVLMVHDHALMDWIGANSYRTSHYPYAEEMLDWADEHGIVVIDETAAVGFNLSLGIGFEAGNKPKELYSEEAVNGETQQAHLQAIKELIARDKNHPSVVMWSIANEPDTRPQGAREYFAPLAEATRKLDPTRPITCVNVMFCDAHTDTISDLFDVLCLNRYYGWYVQSGDLETAEKVLEKELLAWQEKLHQPIIITEYGVDTLAGLHSMYTDMWSEEYQCAWLDMYHRVFDRVSAVVGEQVWNFADFATSQGILRVGGNKKGIFTRDRKPKSAAFLLQKRWTGMNFGEKPQQGGKQ
B3: C: E. coli GUS mutein, Cys 197 changed to Ser (protein, UniProt P05804 1-603, looked up, variant C197S)
Beta-glucuronidase: MLRPVETPTREIKKLDGLWAFSLDRENCGIDQRWWESALQESRAIAVPGSFNDQFADADIRNYAGNVWYQREVFIPKGWAGQRIVLRFDAVTHYGKVWVNNQEVMEHQGGYTPFEADVTPYVIAGKSVRITVCVNNELNWQTIPPGMVITDENGKKKQSYFHDFFNYAGIHRSVMLYTTPNTWVDDITVVTHVAQDSNHASVDWQVVANGDVSVELRDADQQVVATGQGTSGTLQVVNPHLWQPGEGYLYELCVTAKSQTECDIYPLRVGIRSVAVKGEQFLINHKPFYFTGFGRHEDADLRGKGFDNVLMVHDHALMDWIGANSYRTSHYPYAEEMLDWADEHGIVVIDETAAVGFNLSLGIGFEAGNKPKELYSEEAVNGETQQAHLQAIKELIARDKNHPSVVMWSIANEPDTRPQGAREYFAPLAEATRKLDPTRPITCVNVMFCDAHTDTISDLFDVLCLNRYYGWYVQSGDLETAEKVLEKELLAWQEKLHQPIIITEYGVDTLAGLHSMYTDMWSEEYQCAWLDMYHRVFDRVSAVVGEQVWNFADFATSQGILRVGGNKKGIFTRDRKPKSAAFLLQKRWTGMNFGEKPQQGGKQ
B4: B, C, D, E: E. coli GUS mutein, Cys 133, 197, 253, 262 changed to Ala, Ser, Glu, Ser (protein, UniProt P05804 1-603, looked up, variant C133A C197S C253E C262S)
Beta-glucuronidase: MLRPVETPTREIKKLDGLWAFSLDRENCGIDQRWWESALQESRAIAVPGSFNDQFADADIRNYAGNVWYQREVFIPKGWAGQRIVLRFDAVTHYGKVWVNNQEVMEHQGGYTPFEADVTPYVIAGKSVRITVAVNNELNWQTIPPGMVITDENGKKKQSYFHDFFNYAGIHRSVMLYTTPNTWVDDITVVTHVAQDSNHASVDWQVVANGDVSVELRDADQQVVATGQGTSGTLQVVNPHLWQPGEGYLYELEVTAKSQTESDIYPLRVGIRSVAVKGEQFLINHKPFYFTGFGRHEDADLRGKGFDNVLMVHDHALMDWIGANSYRTSHYPYAEEMLDWADEHGIVVIDETAAVGFNLSLGIGFEAGNKPKELYSEEAVNGETQQAHLQAIKELIARDKNHPSVVMWSIANEPDTRPQGAREYFAPLAEATRKLDPTRPITCVNVMFCDAHTDTISDLFDVLCLNRYYGWYVQSGDLETAEKVLEKELLAWQEKLHQPIIITEYGVDTLAGLHSMYTDMWSEEYQCAWLDMYHRVFDRVSAVVGEQVWNFADFATSQGILRVGGNKKGIFTRDRKPKSAAFLLQKRWTGMNFGEKPQQGGKQ
B5: A: E. coli GUS mutein, Cys 28 changed to Asn (protein, UniProt P05804 1-603, looked up, variant C28N)
Beta-glucuronidase: MLRPVETPTREIKKLDGLWAFSLDRENNGIDQRWWESALQESRAIAVPGSFNDQFADADIRNYAGNVWYQREVFIPKGWAGQRIVLRFDAVTHYGKVWVNNQEVMEHQGGYTPFEADVTPYVIAGKSVRITVCVNNELNWQTIPPGMVITDENGKKKQSYFHDFFNYAGIHRSVMLYTTPNTWVDDITVVTHVAQDCNHASVDWQVVANGDVSVELRDADQQVVATGQGTSGTLQVVNPHLWQPGEGYLYELCVTAKSQTECDIYPLRVGIRSVAVKGEQFLINHKPFYFTGFGRHEDADLRGKGFDNVLMVHDHALMDWIGANSYRTSHYPYAEEMLDWADEHGIVVIDETAAVGFNLSLGIGFEAGNKPKELYSEEAVNGETQQAHLQAIKELIARDKNHPSVVMWSIANEPDTRPQGAREYFAPLAEATRKLDPTRPITCVNVMFCDAHTDTISDLFDVLCLNRYYGWYVQSGDLETAEKVLEKELLAWQEKLHQPIIITEYGVDTLAGLHSMYTDMWSEEYQCAWLDMYHRVFDRVSAVVGEQVWNFADFATSQGILRVGGNKKGIFTRDRKPKSAAFLLQKRWTGMNFGEKPQQGGKQ
B6: I: E. coli GUS mutein, Cys 527 changed to Lys (protein, UniProt P05804 1-603, looked up, variant C527K)
Beta-glucuronidase: MLRPVETPTREIKKLDGLWAFSLDRENCGIDQRWWESALQESRAIAVPGSFNDQFADADIRNYAGNVWYQREVFIPKGWAGQRIVLRFDAVTHYGKVWVNNQEVMEHQGGYTPFEADVTPYVIAGKSVRITVCVNNELNWQTIPPGMVITDENGKKKQSYFHDFFNYAGIHRSVMLYTTPNTWVDDITVVTHVAQDCNHASVDWQVVANGDVSVELRDADQQVVATGQGTSGTLQVVNPHLWQPGEGYLYELCVTAKSQTECDIYPLRVGIRSVAVKGEQFLINHKPFYFTGFGRHEDADLRGKGFDNVLMVHDHALMDWIGANSYRTSHYPYAEEMLDWADEHGIVVIDETAAVGFNLSLGIGFEAGNKPKELYSEEAVNGETQQAHLQAIKELIARDKNHPSVVMWSIANEPDTRPQGAREYFAPLAEATRKLDPTRPITCVNVMFCDAHTDTISDLFDVLCLNRYYGWYVQSGDLETAEKVLEKELLAWQEKLHQPIIITEYGVDTLAGLHSMYTDMWSEEYQKAWLDMYHRVFDRVSAVVGEQVWNFADFATSQGILRVGGNKKGIFTRDRKPKSAAFLLQKRWTGMNFGEKPQQGGKQ
B7: A, B, C, D, E: E. coli GUS mutein, Cys 28, 133, 197, 253, 262 changed to Asn, Ala, Ser, Glu, Ser (protein, UniProt P05804 1-603, looked up, variant C28N C133A C197S C253E C262S)
Beta-glucuronidase: MLRPVETPTREIKKLDGLWAFSLDRENNGIDQRWWESALQESRAIAVPGSFNDQFADADIRNYAGNVWYQREVFIPKGWAGQRIVLRFDAVTHYGKVWVNNQEVMEHQGGYTPFEADVTPYVIAGKSVRITVAVNNELNWQTIPPGMVITDENGKKKQSYFHDFFNYAGIHRSVMLYTTPNTWVDDITVVTHVAQDSNHASVDWQVVANGDVSVELRDADQQVVATGQGTSGTLQVVNPHLWQPGEGYLYELEVTAKSQTESDIYPLRVGIRSVAVKGEQFLINHKPFYFTGFGRHEDADLRGKGFDNVLMVHDHALMDWIGANSYRTSHYPYAEEMLDWADEHGIVVIDETAAVGFNLSLGIGFEAGNKPKELYSEEAVNGETQQAHLQAIKELIARDKNHPSVVMWSIANEPDTRPQGAREYFAPLAEATRKLDPTRPITCVNVMFCDAHTDTISDLFDVLCLNRYYGWYVQSGDLETAEKVLEKELLAWQEKLHQPIIITEYGVDTLAGLHSMYTDMWSEEYQCAWLDMYHRVFDRVSAVVGEQVWNFADFATSQGILRVGGNKKGIFTRDRKPKSAAFLLQKRWTGMNFGEKPQQGGKQ
B8: A, B, C, D, E, I: E. coli GUS mutein, Cys 28, 133, 197, 253, 262, 527 changed to Asn, Ala, Ser, Glu, Ser, Lys (protein, UniProt P05804 1-603, looked up, variant C28N C133A C197S C253E C262S C527K)
Beta-glucuronidase: MLRPVETPTREIKKLDGLWAFSLDRENNGIDQRWWESALQESRAIAVPGSFNDQFADADIRNYAGNVWYQREVFIPKGWAGQRIVLRFDAVTHYGKVWVNNQEVMEHQGGYTPFEADVTPYVIAGKSVRITVAVNNELNWQTIPPGMVITDENGKKKQSYFHDFFNYAGIHRSVMLYTTPNTWVDDITVVTHVAQDSNHASVDWQVVANGDVSVELRDADQQVVATGQGTSGTLQVVNPHLWQPGEGYLYELEVTAKSQTESDIYPLRVGIRSVAVKGEQFLINHKPFYFTGFGRHEDADLRGKGFDNVLMVHDHALMDWIGANSYRTSHYPYAEEMLDWADEHGIVVIDETAAVGFNLSLGIGFEAGNKPKELYSEEAVNGETQQAHLQAIKELIARDKNHPSVVMWSIANEPDTRPQGAREYFAPLAEATRKLDPTRPITCVNVMFCDAHTDTISDLFDVLCLNRYYGWYVQSGDLETAEKVLEKELLAWQEKLHQPIIITEYGVDTLAGLHSMYTDMWSEEYQKAWLDMYHRVFDRVSAVVGEQVWNFADFATSQGILRVGGNKKGIFTRDRKPKSAAFLLQKRWTGMNFGEKPQQGGKQ

The subject of the assay is KW1. Description: X-GlcA staining of low-cysteine E. coli GUS muteins in KW1. The format is cell-based. The conditions noted are these: pBS backbone in KW1, staining with X-GlcA. From the text:
Single and multiple Cys muteins are constructed by site-directed mutagenesis techniques. Eight of the nine cysteine residues in E. coli GUS are changed to the corresponding residue found in human GUS based on alignment of the two protein sequences. One of the E. coli GUS cysteine residues, amino acid 463, aligns with a cysteine residue in human GUS and was not altered. The corresponding amino acids between E. coli GUS and human GUS are shown below.
The mutein GUS genes are cloned into a pBS backbone. The mutations are confirmed by diagnostic restriction site changes and by DNA sequence analysis. Recombinant vectors are transfected into KW1 and GUS activity assayed by staining with X-GlcA (5-bromo-4-chloro-3-indolyl-β-D-glucuronide).
On to B1, for which the GUS activity entry is reported as “Yes”. B2: the GUS activity result was “Yes”. B3: the GUS activity result is recorded as “Yes”.

Consider B4, for which the GUS activity entry was “Yes”.

For B5, the GUS activity result was “Yes”.

On to B6, for which the GUS activity result is reported as “No”. To B7 belongs “Yes”.

As for B8, the GUS activity entry is on record as “No”.
